Source: PMC8904820

Target: HRT1-REF bridging protein (HRBP) (Hevea brasiliensis)

prenyltransferase activity of HRT1/HRBP-nanodisc complexes, raw [14C]IPP incorporation (12.5 nCi [14C]IPP in the reaction): 12200 dpm
Substance: Hevea rubber transferase 1 (HRT1) (enzyme)
